According to the supplement of paper PMC10899765:

Assays:
Details in all cases: 20 nM; 72 h
[1] = test system: MCF10A; assay: 5+ nucleoli phenotype percent effect (relative to siNT 0% and siKIF11 100%); higher = more cells with five or more nucleoli
Protocol: (§1)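 After 72 h, cells were fixed and stained with Hoechst and anti-fibrillarin, and nucleoli per nucleus were counted with CellProfiler. Values are plate-adjusted percent effect for the one-nucleolus and 5+ nucleoli phenotypes, normalised to siNT (0%) and to the positive controls siNOL11 or siKIF11 (100%), as the mean of biological triplicates. Percent viability is the nuclei count relative to siNT.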

[2] = test system: MCF10A; assay: one-nucleolus phenotype percent effect (relative to siNT 0% and siNOL11 100%); higher = more cells with one nucleolus (ribosome biogenesis inhibition)
Protocol: as §1

[3] = test system: MCF10A; assay: percent viability (nuclei count relative to siNT); higher = more viable cells
Protocol: as §1

Sequence | 5+ nucleoli phenotype percent effect [1] [%] | one-nucleolus phenotype percent effect [2] [%] | percent viability [3] [%]
AGACAGUAGUUCUUGCCUGGUU [hsa-miR-4645-3p] | -25 | 18.2 | 52.7
AAGGGACAGGGAGGGUCGUGG [hsa-miR-7845-5p] | 2.91 | -13.3 | 60.5
UGAGAGUGGAAUUCACAGUAUUU [hsa-miR-4693-3p] | -31.4 | 35.2 | 23
AGCCUGGAAGCUGGAGCCUGCAGU [hsa-miR-1254] | -6.84 | 10.5 | 50.1
AGGGCUGGACUCAGCGGCGGAGCU [hsa-miR-5001-5p] | -6.45 | 23.3 | 42.6
ACAUCGCCCCACCUUCCCCAG [hsa-miR-6785-3p] | 55.5 | -34.4 | 102
AUUUGUGCUUGGCUCUGUCAC [hsa-miR-2113] | 9.63 | -12.4 | 98.6
CAAUCACUAACUCCACUGCCAU [hsa-miR-34b-3p] | 11 | -6.72 | 50.1
UAGGUGGCAGAGGAGGGACUUCA [hsa-miR-6865-5p] | -3.22 | 20.5 | 11.7
CUCUAGAGGGAAGCGCUUUCUG [hsa-miR-519b-5p] | -5.59 | 5.75 | 36.9
UCUGGGGAUGAGGACAGUGUGU [hsa-miR-4700-5p] | -10.2 | 29 | 35.8
AACUAGCUCUGUGGAUCCUGAC [hsa-miR-4661-5p] | -18.4 | 21.8 | 13.9
GCAGUGGCUCUGAAAUGAACUC [hsa-miR-5693] | -12.8 | -3.8 | 33.8
AAGAGAACUGAAAGUGGAGCCU [hsa-miR-3925-5p] | -8.02 | -13 | 49.5
AGCUCGGUCUGAGGCCCCUCAGU [hsa-miR-423-3p] | -11.8 | 19.5 | 56.6
ACUGGACUUAGGGUCAGAAGGC [hsa-miR-422a] | -13.7 | 12.5 | 37.8
UACUCCAGAGGGCGUCACUCAUG [hsa-miR-508-5p] | 0.947 | 19.6 | 60.6
CCUGGGGACAGGGGAUUGGGGCAG [hsa-miR-8089] | 40.1 | -19.7 | 93.2
AGGGAAGGGGACGAGGGUUGGG [hsa-miR-5196-5p] | 4.34 | 5.32 | 40.5
CAUGACGUCACAGAGGCUUCGC [hsa-miR-4757-3p] | 36.1 | -14.4 | 61.2

Sequence | 5+ nucleoli phenotype percent effect [1] [%] | one-nucleolus phenotype percent effect [2] [%] | percent viability [3] [%]
UCCCUUCUUCCUGGGCCCUCA [hsa-miR-5088-3p] | 70.3 | -36.6 | 59.2
UUUAGAUUGAACAUGAAGUUAG [hsa-miR-4760-5p] | 46.3 | -20.8 | 83.5
CUCUAGAGGGAAGCACUUUCUG [hsa-miR-520c-5p] | 17.5 | -6.38 | 82.7
CGCCUCUUCAGCGCUGUCUUCC [hsa-miR-2682-3p] | 24 | -7.1 | 75.9
UUUAGGAUAAGCUUGACUUUUG [hsa-miR-651] | 33.3 | -20.4 | 140
UCUCUUCAUCUACCCCCCAG [hsa-miR-6515-3p] | -2.57 | 4.68 | 85.2
UGGGGAGGUGUGGAGUCAGCAU [hsa-miR-6825-5p] | 1.61 | 37.7 | 22.4
UCCUUCAUUCCACCGGAGUCUG [hsa-miR-205-5p] | -17.6 | 21 | 67.4
AGAAAGGUGGAGGGGUUGUCAGA [hsa-miR-6730-5p] | -33.5 | 47.3 | 24.7
ACAGGAGUGGGGGUGGGACAU [hsa-miR-4433-3p] | -0.614 | 6.34 | 38.2
UUGCUCUGAGCUCCGAGAAAGC [hsa-miR-5691] | -16.4 | -10.3 | 48.2
AAAAGCUGGGUUGAGAGGGCGA [hsa-miR-320a] | -11.8 | 18.7 | 38.1
CAAGGGACCAAGCAUUCAUUAU [hsa-miR-4475] | -16.1 | 7.86 | 37.7
UCUAGGCUGGUACUGCUGA [hsa-miR-645] | 7.45 | -11.5 | 59.5
UAGCGGGGAUUCCAAUAUUGG [hsa-miR-4781-5p] | -29.7 | 46.5 | 24.3
CACCCCCUGUUUCCUGGCCCAC [hsa-miR-4640-3p] | 31.4 | -11.3 | 127
GCCCUGAACGAGGGGUCUGGAG [hsa-miR-345-3p] | 29.8 | -13.5 | 61
UAUUGCACUUGUCCCGGCCUGU [hsa-miR-92a-3p] | 4.47 | -3.22 | 88.8
UGAAGUACCAGCUACUCGAGAG [hsa-miR-5585-5p] | -8.83 | -3.33 | 36.7
CCUCCUGCCCUCCUUGCUGU [hsa-miR-1976] | 21.5 | 7.39 | 79.5

Sequence | 5+ nucleoli phenotype percent effect [1] [%] | one-nucleolus phenotype percent effect [2] [%] | percent viability [3] [%]
UGUCUACUACUGGAGACACUGG [hsa-miR-934] | -13.1 | 22.5 | 37.1
AGCGCGGGCUGAGCGCUGCCAGUC [hsa-miR-2277-5p] | -22.4 | 25.5 | 31.3
AUACAUGUCAGAUUGUAUGCC [hsa-miR-4666a-5p] | 3.52 | -5.95 | 52.7
CCCCUGGGCCGGCCUUGG [hsa-miR-4292] | 31.4 | 4.18 | 26.6
UGCCCUGAGACUUUUGCUC [hsa-miR-7976] | -8.65 | 17.4 | 40.8
CGCAGGGGCCGGGUGCUCACCG [hsa-miR-1909-3p] | 13.4 | 20.6 | 26.7
GGAGAUGGAGGUUGCAGUG [hsa-miR-1273f] | 1.46 | 20.3 | 62.9
UUCACAGGGAGGUGUCAU [hsa-miR-513a-5p] | -25.5 | 24.8 | 68
GAGGUUUUCUGGGUUUCUGUUUC [hsa-miR-329-5p] | 17.3 | -9.91 | 56
UGGGAACUUAGUAGAGGUUUAA [hsa-miR-4471] | 7.89 | 5.31 | 26.7
CAGUGCCUCGGCAGUGCAGCCC [hsa-miR-33b-3p] | 24.5 | -17.8 | 107
CGCAGGGCCCUGGCGCAGGCAU [hsa-miR-6836-5p] | -6.59 | 28.5 | 37.7
GAUAUCAGCUCAGUAGGCACCG [hsa-miR-3074-3p] | 2.53 | -9.52 | 25.1
AGGCCCUGUCCUCUGCCCCAG [hsa-miR-6775-3p] | 11.1 | 12.8 | 41.3
AUCUGCUCUCUUGUUCCCAG [hsa-miR-6828-3p] | 10.5 | 2.43 | 43.4
GUGAGGGACUGGGAUUUGUGG [hsa-miR-6834-5p] | 23.5 | -28.7 | 81.4
UAAGGGGUGUAUGGCAGAUGCA [hsa-miR-3936] | -17.6 | 36.7 | 19.2
GCUGGGAUUACAGGCAUGAGCC [hsa-miR-619-5p] | 19 | -9.05 | 50
UGAGUUGGCCAUCUGAGUGAG [hsa-miR-571] | 5.09 | -7.45 | 84.6
